Assay results as given in publication PMC10626419, “DONSON is required for CMG helicase assembly in the mammalian cell cycle” (EMBO Reports, 2023).

Target: T1, Recombinant mouse CMG helicase (CDC45‐MCM‐GINS) (mouse, UniProt Q9Z1X9 1-566; P97310 1-904; P25206 1-812; P49717 1-862; P49718 1-734; P97311 …)
T1 construct: CDC45, mouse; MCM2, mouse; MCM3, mouse; MCM4, mouse; MCM5, mouse; MCM6, mouse; MCM7, mouse; PSF1 (GINS subunit), mouse; fourth GINS subunit, mouse; PSF3 (GINS subunit), mouse; SLD5 (GINS subunit), mouse; The complex was captured on IgG Sepharose and released with TEV protease, so one subunit carried a cleavable tag; source: budding yeast strain YCE1259 co-expressing the 11 subunits, purified (IgG …)
Test: co-IP; purified recombinant mouse DONSON and CMG incubated in 25 mM Hepes‐KOH pH 7.6, 200 mM KOAc, 0.02% NP‐40, 10 mM MgOAc, 1 mM DTT, 0.1 mg/ml BSA for 30 min on ice; CMG isolated on magnetic beads coupled to MCM6 antibody, 1 h on ice; immunoblotting (Fig 1C)
Settings: both partners purified

- binding result: binds
B1: Recombinant mouse DONSON (natural protein, UniProt Q9QXP4 1-560, looked up)
chain: MAVSVPGYSPSFKRPPETVRLRRKRSRDHGAAVPASLPEPAPRRAALAAGLPLRPFPTAGGRGGAAATIARRNPFARLDNRPRVSDEASEEPLRGPQGASGPLLDSNEENNLLWEDTSSHERTGTELSQSQRVSLSESDTWSSDGTELPVDWSIKTRLLFTSSQPFSWADHLKAQEEAQGLVQHCRATEVTLPQSIQDPKLSTALRCAFQQALVYWLHPAFSWLPLFPRIGADRKMAAKTSPWSADETLQHALMSDWSVSFTSLYNLLKTKLCPYFYVCSYQFTVLFRAAGLAGSSVITALISPTTRGLREAMRNEGIEFSLPLLEEIGHKKKVRDPSLESEEEQAVSDEDEEESFSWLEEIGVQDQIKKPDVISIKLRKEKHEVQMDHRPESVVLVKGLNTFKLLNFLINCKSLVATSGAQAGLPPTLLSPIAFRGASMQMLKARSSNVKTQALSGYRDKFSLDITGPVMPHALHSMSMLLRSSQRGSFSAGLYAHEPTAVFNVGLSLDKELDRKVAREDLANCGLHPKTLEQLSQRPVLGKSSLRSVEMSDYILSWRS
notes: DONSON, mouse; also called His‐SUMO‐DONSON (before cleavage); source: E. coli Rosetta (DE3) pLys, purified (Ni‐NTA, ULP1 cleavage, Superdex 200)
